In the supplement of paper PMC10567573:

B1: DVL3 (parent)
chain: HPDPAPFCADNPSELPPPMERTGG

Variants of: B1
Experiment: protein stability index of a GFP-peptide fusion (GPS, HEK-293T) (PSI 1-6); higher = more stable
Details: c terminus: a fixed tail appended
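Further: lentivirally expressed fusions sorted by FACS into six bins by GFP to DsRed ratio, PSI derived from sequencing read proportions per bin multiplied by bin number.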

Variant	protein stability index
HPDPAPFCADLPSELPPPMERTGG	2.59
HPDPAPRCADNPSELPPPMERTGG	5.23
HPDPAPWCADNPSELPPPMERTGG	2.21
HPDPAWFCADNPSELPPPMERTGG	3.3
HPDPACFCADNPSELPPPMERTGG	3.01
HPDPAIFCADNPSELPPPMERTGG	3
HPDPAEFCADNPSELPPPMERTGG	4.91
HPDPAAFCADNPSELPPPMERTGG	2.69
HPDPAGFCADNPSELPPPMERTGG	3.57
HPDPANFCADNPSELPPPMERTGG	4.83
HPDPARFCADNPSELPPPMERTGG	2.91
HPDPAYFCADNPSELPPPMERTGG	2.46
HPDPASFCADNPSELPPPMERTGG	3.14
HPDPAMFCADNPSELPPPMERTGG	2.83
HPDPALFCADNPSELPPPMERTGG	2.83
HPDPADFCADNPSELPPPMERTGG	5.21
HPDPAVFCADNPSELPPPMERTGG	2.73
HPDPAHFCADNPSELPPPMERTGG	3.46
HPDPAFFCADNPSELPPPMERTGG	2.48
HPDPAKFCADNPSELPPPMERTGG	3.33
HPDPAQFCADNPSELPPPMERTGG	4.12
HPDPATFCADNPSELPPPMERTGG	3.92
HPDPYPFCADNPSELPPPMERTGG	3.11
HPDPVPFCADNPSELPPPMERTGG	3.62

Variant	protein stability index
HPDPSPFCADNPSELPPPMERTGG	2.54
HPDPIPFCADNPSELPPPMERTGG	2.77
HPDPFPFCADNPSELPPPMERTGG	2.58
HPDPRPFCADNPSELPPPMERTGG	2.29
HPDPNPFCADNPSELPPPMERTGG	3.93
HPDPCPFCADNPSELPPPMERTGG	2.75
HPDPMPFCADNPSELPPPMERTGG	1.82
HPDPDPFCADNPSELPPPMERTGG	3.82
HPDPWPFCADNPSELPPPMERTGG	2.41
HPDPKPFCADNPSELPPPMERTGG	2.7
HPDPGPFCADNPSELPPPMERTGG	2.87
HPDPEPFCADNPSELPPPMERTGG	3.91
HPDPLPFCADNPSELPPPMERTGG	2.77
HPDPQPFCADNPSELPPPMERTGG	3.42
HRDPAPFCADNPSELPPPMERTGG	4.33
HHDPAPFCADNPSELPPPMERTGG	3.19
HMDPAPFCADNPSELPPPMERTGG	2.04
HYDPAPFCADNPSELPPPMERTGG	3.84
HDDPAPFCADNPSELPPPMERTGG	5.12
HSDPAPFCADNPSELPPPMERTGG	3.51
HQDPAPFCADNPSELPPPMERTGG	1.54
HNDPAPFCADNPSELPPPMERTGG	4.74
HTDPAPFCADNPSELPPPMERTGG	2.27
HADPAPFCADNPSELPPPMERTGG	2.08

Variant	protein stability index
HFDPAPFCADNPSELPPPMERTGG	4.57
HGDPAPFCADNPSELPPPMERTGG	5.4
HEDPAPFCADNPSELPPPMERTGG	4.46
HWDPAPFCADNPSELPPPMERTGG	3.03
HKDPAPFCADNPSELPPPMERTGG	5.1
HLDPAPFCADNPSELPPPMERTGG	1.93
HCDPAPFCADNPSELPPPMERTGG	2.28
HPDPAPFCGDNPSELPPPMERTGG	3.27
HPDPAPFCADNNSELPPPMERTGG	2.42
HPDPAPFCADNQSELPPPMERTGG	2.86
HPDPAPFCADNKSELPPPMERTGG	2.88
HPDPAPFCADNLSELPPPMERTGG	3.24
HPDPAPFCADNMSELPPPMERTGG	3.54
HPDPAPFCADNRSELPPPMERTGG	2.95
HPDPAPFCADNESELPPPMERTGG	3.19
HPDPAPFCADNVSELPPPMERTGG	2.3
HPDPAPFCADNWSELPPPMERTGG	2.17
HPRPAPFCADNPSELPPPMERTGG	4.13
HPMPAPFCADNPSELPPPMERTGG	3.42
HPVPAPFCADNPSELPPPMERTGG	3.39
HPWPAPFCADNPSELPPPMERTGG	2.81
HPDPAPFCADNPSGLPPPMERTGG	2.65
HPDPAPFCADNPSELPDPMERTGG	2.93
HPDPAPFCADNPSELPMPMERTGG	2.54

Variant	protein stability index
HPDPAPFCADNPSELPVPMERTGG	2.82
HPDPAPFCADNPSELPGPMERTGG	2.6
HPDPAPFCADNPSELPHPMERTGG	2.61
HPDPAPFCADNPSELPNPMERTGG	2.65
HPDPAPFCADNPSELPKPMERTGG	2.92
HPDPAPFCADNPSELPAPMERTGG	2.73
HPDPAPFCADNPSELPSPMERTGG	2.92
HPDPAPFCADNPSELPIPMERTGG	2.63
HPDPAPFCADNPSELPLPMERTGG	2.76
HPDPAPFCADNPSELPFPMERTGG	2.4
HPDPAPFCADNPSELPRPMERTGG	2.62
HPDPAPFCADNPSELPCPMERTGG	2.52
HPDPAPFCADNPSELPQPMERTGG	3.02
HPDPAPFCADNPSELPEPMERTGG	3.41
HPDPAPFRADNPSELPPPMERTGG	2.62
HPDPAPFGADNPSELPPPMERTGG	4.65
HPDPAPFWADNPSELPPPMERTGG	2.74
HPDPAPFVADNPSELPPPMERTGG	2.84
HPDPAPFEADNPSELPPPMERTGG	5.49
HPDIAPFCADNPSELPPPMERTGG	4.99
HPDKAPFCADNPSELPPPMERTGG	5.4
HPDWAPFCADNPSELPPPMERTGG	5.19
